Measured values from patent US20210347873A1 (SHANGHAI PHARMAEXPLORER, published 2021).

How the values were obtained:
[1] = molecular target: extracellular domain of human BLyS protein (hBLyS-ECD), His-tagged, Ala134-Leu285 (human) (UniProt Q9Y275); experiment: cell-based or functional assay
[2] = molecular target: human BLyS (full length, arginine to histidine at position 132) on CHO-K1 cells (human) (UniProt Q9Y275); experiment: flow cytometry, CHO-K1 hBLyS cells, antibody 66.7 nM
[3] = molecular target: cynomolgus BLyS (full length, arginine to histidine at position 132) on CHO-K1 cells (cynomolgus); experiment: flow cytometry, CHO-K1 cynoBLyS cells, antibody 13.3 nM
[4] = molecular target: cynomolgus BLyS (full length, arginine to histidine at position 132) on CHO-K1 cells (cynomolgus); experiment: flow cytometry, CHO-K1 cynoBLyS cells, antibody 0.534 nM
Target sequence in this assay (Q9Y275 other isoform, or with tags, fused parts or gaps limits assumed): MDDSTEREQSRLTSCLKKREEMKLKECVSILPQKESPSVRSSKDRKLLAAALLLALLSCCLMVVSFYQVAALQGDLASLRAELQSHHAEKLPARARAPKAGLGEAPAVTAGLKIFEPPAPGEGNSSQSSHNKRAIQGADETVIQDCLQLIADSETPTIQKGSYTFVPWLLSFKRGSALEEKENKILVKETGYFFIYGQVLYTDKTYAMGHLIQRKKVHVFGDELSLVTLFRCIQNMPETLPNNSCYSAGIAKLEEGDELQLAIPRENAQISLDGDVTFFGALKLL

[5] = molecular target: biotinylated hBLyS-ECD (human) (UniProt Q9Y275); experiment: ELISA on captured biotinylated hBLyS-ECD; control antibody 13.3 nM
[6] = molecular target: biotinylated hBLyS-ECD (human) (UniProt Q9Y275); experiment: ELISA on captured biotinylated hBLyS-ECD; control antibody 0.534 nM
[7] = molecular target: biotinylated hBLyS-ECD (human) (UniProt Q9Y275); experiment: ELISA on captured biotinylated hBLyS-ECD; control antibody 0.107 nM
[8] = molecular target: biotinylated hBLyS-ECD (human) (UniProt Q9Y275); experiment: ELISA on captured biotinylated hBLyS-ECD; control antibody 0.534 nM; remark: listed apart in the source
[9] = molecular target: biotinylated hBLyS-ECD (human) (UniProt Q9Y275); experiment: ELISA on captured biotinylated hBLyS-ECD; control antibody 0.0213 nM
[10] = molecular target: biotinylated hBLyS-ECD (human) (UniProt Q9Y275); experiment: blocking ELISA: biotinylated hBLyS-ECD on coated BAFF R, antibody 4 nM
[11] = molecular target: biotinylated hBLyS-ECD (human) (UniProt Q9Y275); experiment: blocking ELISA: biotinylated hBLyS-ECD on coated BAFF R, antibody 20 nM
[12] = molecular target: biotinylated hBLyS-ECD (human) (UniProt Q9Y275); experiment: blocking ELISA: biotinylated hBLyS-ECD on coated BAFF R, antibody 100 nM
[13] = molecular target: biotinylated hBLyS-ECD (human) (UniProt Q9Y275); experiment: ELISA, biotinylated hBLyS-ECD captured on streptavidin; antibody 0.534 nM
[14] = molecular target: biotinylated hBLyS-ECD (human) (UniProt Q9Y275); experiment: blocking ELISA: biotinylated hBLyS-ECD on coated BAFF R, antibody 0.16 nM
[15] = molecular target: biotinylated hBLyS-ECD (human) (UniProt Q9Y275); experiment: blocking ELISA: biotinylated hBLyS-ECD on coated BAFF R, antibody 0.032 nM
[16] = molecular target: biotinylated hBLyS-ECD (human) (UniProt Q9Y275); experiment: ELISA, biotinylated hBLyS-ECD captured on streptavidin; antibody 0.00427 nM
[17] = molecular target: biotinylated hBLyS-ECD (human) (UniProt Q9Y275); experiment: blocking ELISA: biotinylated hBLyS-ECD on coated BAFF R, antibody 0.0064 nM
[18] = molecular target: biotinylated hBLyS-ECD (human) (UniProt Q9Y275); experiment: ELISA on captured biotinylated hBLyS-ECD; control antibody 0 nM (background)
[19] = molecular target: biotinylated hBLyS-ECD (human) (UniProt Q9Y275); experiment: BAFF R-coated ELISA, biotinylated hBLyS-ECD bound in presence of control antibody 0 nM
[20] = molecular target: biotinylated hBLyS-ECD (human) (UniProt Q9Y275); experiment: BAFF R-coated ELISA, biotinylated hBLyS-ECD bound in presence of control antibody 4 nM
[21] = molecular target: biotinylated hBLyS-ECD (human) (UniProt Q9Y275); experiment: BAFF R-coated ELISA, biotinylated hBLyS-ECD bound in presence of control antibody 100 nM
[22] = molecular target: biotinylated hBLyS-ECD (human) (UniProt Q9Y275); experiment: BAFF R-coated ELISA, biotinylated hBLyS-ECD bound in presence of control antibody 0.16 nM
[23] = molecular target: biotinylated hBLyS-ECD (human) (UniProt Q9Y275); experiment: BAFF R-coated ELISA, biotinylated hBLyS-ECD bound in presence of control antibody 0.032 nM
[24] = molecular target: T1, biotinylated hBLyS-ECD (human, UniProt Q9Y275 134-285, biotinylated with Biotin-X-X-NHS (molar ratio 7:1); sites not stated); experiment: ELISA on captured biotinylated hBLyS-ECD; antibody 2.67 nM
T1 construct: also called biotinylated immunogen; biotinylated hBLvS-ECD

[25] = molecular target: T1, biotinylated hBLyS-ECD; experiment: ELISA on captured biotinylated hBLyS-ECD; antibody 0.0213 nM
[26] = molecular target: T2, extracellular domain of human BLyS protein (hBLyS-ECD), His-tagged, Ala134-Leu285 (human, UniProt Q9Y275 134-285); experiment: SPR (Biacore), antibody captured by anti-human Fc, hBLyS-ECD as analyte
T2 construct: Expressed in HEK293 cells and purified on a Ni column; also called immunogen

[27] = molecular target: T1, biotinylated hBLyS-ECD; experiment: BAFF R-coated ELISA, biotinylated hBLyS-ECD bound in presence of antibody 4 nM
[28] = molecular target: T1, biotinylated hBLyS-ECD; experiment: BAFF R-coated ELISA, biotinylated hBLyS-ECD bound in presence of antibody 0.8 nM
[29] = molecular target: T1, biotinylated hBLyS-ECD; experiment: BAFF R-coated ELISA, biotinylated hBLyS-ECD bound in presence of antibody 100 nM

Sequence of human BLyS (full length, arginine to histidine at position 132) on CHO-K1 cells (human) (Q9Y275 whole entry R130H): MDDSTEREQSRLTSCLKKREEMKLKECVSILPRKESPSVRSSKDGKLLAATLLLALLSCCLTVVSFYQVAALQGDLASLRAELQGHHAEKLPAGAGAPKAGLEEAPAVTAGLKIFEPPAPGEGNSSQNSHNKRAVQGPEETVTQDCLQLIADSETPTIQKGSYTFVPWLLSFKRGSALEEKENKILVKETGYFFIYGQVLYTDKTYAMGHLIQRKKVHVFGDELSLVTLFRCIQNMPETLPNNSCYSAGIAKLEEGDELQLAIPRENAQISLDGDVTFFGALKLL

| MFI [2] | MFI [3] | MFI [4] | OD450 nm [10] | OD450 nm [11] | OD450 nm [12] | OD450 nm [13] | OD450 nm [14] | OD450 nm [15] | OD450 nm [16] | OD450 nm [17] | OD450 nm [24] | OD450 nm [25] | Kd [26] | koff [26] | kon [26] | OD450 nm [27] | OD450 nm [28] | OD450 nm [29] | Molecule | further results |
| --- | --- | --- | --- | --- | --- | --- | --- | --- | --- | --- | --- | --- | --- | --- | --- | --- | --- | --- | --- | --- |
| 52 MFI | 26.7 MFI | 22.6 MFI | 1.09 OD450 nm | 1.06 OD450 nm | 1.22 OD450 nm | 0.0916 | 1.08 OD450 nm | 1.11 OD450 nm | 0.108 | 1.14 OD450 nm |  |  |  |  |  |  |  |  | hIgG Control (antibody) | Proportion of B lymphocytes in splenocytes (%), in vivo in mice [1]: 38.3%; OD450 nm [5]: 0.103 OD450 nm; OD450 nm [6]: 0.062 OD450 nm; OD450 nm [7]: 0.117 OD450 nm; OD450 nm [8]: 0.141 OD450 nm; OD450 nm [9]: 0.0887 OD450 nm; OD450 nm [18]: 0.119 OD450 nm; OD450 nm [19]: 2 OD450 nm; OD450 nm [20]: 1.87 OD450 nm; OD450 nm [21]: 2.2 OD450 nm; OD450 nm [22]: 1.79 OD450 nm; OD450 nm [23]: 1.99 OD450 nm |
| 33.6 MFI | 20.7 MFI | 20 MFI | 1.41 OD450 nm | 1.36 OD450 nm | 1.3 OD450 nm | 0.0594 | 1.47 OD450 nm | 1.45 OD450 nm | 0.0695 | 1.4 OD450 nm |  |  |  |  |  |  |  |  | mIgG Control (antibody) |  |
|  |  |  |  |  |  |  |  |  |  |  | 2.25 OD450 nm | 0.936 OD450 nm | 0.446 nM | 7.34e-05 s⁻¹ | 165000 M⁻¹ s⁻¹ | 1.07 OD450 nm | 1.47 OD450 nm | 0.474 OD450 nm | c97A3C2H4 (antibody, V domains shown, also called chimeric antibody c97A3C2H4) VH: EVKLVESGGGLVQPGGSLKLSCAASGFTFSTYTMSWVRQTPEKRLEWVAYISYGGGSTSYPDTVKGRFTISRDNAKNTLYLQMSSLKSEDTAIYYCTRHVTVVENSMDYWGQGTSVTVSS VL: DILLTQSPDILSVSPGERVSFSCRASQSIGTSIHWYQQRTNGSPRLLIKYVSESFSGTPSRFSGSGSGTAFTLTINSVESEDIADYYCQQTHSWPWTFGGGTKLEIK |  |
|  |  |  |  |  |  |  |  |  |  |  | 2.21 OD450 nm | 0.574 OD450 nm | 2.38 nM | 0.00109 s⁻¹ | 456000 M⁻¹ s⁻¹ | 1.04 OD450 nm | 1.56 OD450 nm | 0.53 OD450 nm | c8E7D9C7F5 (antibody, V domains shown, also called chimeric antibody c8E7D9C7F5) VH: QVQLQQSGVELARPGASVKLSCKASGYTFTSYGISWVKQRTGQALEWIGEIYPRSGNTYYNEKFKGKATLTADKSSSTAYMELRSLTSEDSAVYFCARSGPITTLVATDYGMDYWGQGTSVTVSS VL: DIVLTQSPASLAVSLGQRATISCRASKSVSTSSYSYMHWYQQKPGQPPKLLIKFASNLESGVPARFSGSGSGTDFTLNIHPVEEEDAATYYCQHSREFPYTFGGGTKLEIK |  |
